Assay results: patent US20210115146A1 (WUXI BIOLOGICS IRELAND, published 2021)
Several values for one entry are separate records, joined by “and”; a condition that tells them apart may be missing. Equal entries are not always repeated.

How the values were obtained:
[1] = target: T1, human EGFR (cell surface) (human, UniProt P00533 25-1210); test: FACS competition, competitor W5626-2C10-z5; lower panel 'Binning with W5626-2C10-z5'; cells not named on the sheet, A431 in the example
T1 construct: whole, on cells; also called W562-CHO-K1.hPro1.E9 cells; A431 cells

[2] = target: T2, human EGFRvIII (cell surface) (human, UniProt P00533 25-1210); test: FACS on EGFRvIII transfected cells, anti-c-Myc-biotin and streptavidin-PE
T2 construct: whole, on cells; also called hEGFRIII; EGFR variant III

[3] = target: T1, human EGFR (cell surface); test: FACS competition, competitor W5626-2C2-z22; upper panel 'Binning with W5626-2C2-z22'; cells not named on the sheet, A431 in the example
CD3.his = test: non-specific binding ELISA, 10 µg/ml VHH on coated antigen
Protocol: (§1) Non-specific binding ELISA was performed in 96-well high binding plates (Nunc-Immuno Plate, Thermo Scientific). The plate was coated with various antigens at 2 μg/mL overnight at 4° C. […] The plates were subsequently incubated with the secondary antibody Goat anti-cMyc-HRP (Bethyl) for additional 1 hour. The HRP signal was detected by adding TMB substrate and the reaction was stopped after 12 minutes using 2M HCl. The absorbance at 450 nm was read using a microplate reader (Molecular Device). All incubation steps were performed at room temperature. The plate was washed with PBST (0.05% Tween20-PBS) between each step.

CD40 = test: as above
Sequence of CD40 (P25942 21-193): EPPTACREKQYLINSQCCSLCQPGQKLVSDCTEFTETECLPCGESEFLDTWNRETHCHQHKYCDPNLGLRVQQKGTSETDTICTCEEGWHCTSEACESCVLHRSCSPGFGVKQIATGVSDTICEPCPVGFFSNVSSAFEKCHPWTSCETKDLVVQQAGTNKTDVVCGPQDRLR
Protocol: as §1

CTLA4.his = test: as above
Sequence of CTLA4.his (P16410 36-161): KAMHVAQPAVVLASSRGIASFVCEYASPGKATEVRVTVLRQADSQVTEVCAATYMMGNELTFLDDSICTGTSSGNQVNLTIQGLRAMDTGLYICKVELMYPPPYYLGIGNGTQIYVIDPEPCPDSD
Protocol: as §1

HER3.his [4] = target: T3, HER3.his (Homo sapiens (Human), UniProt P21860 20-643); test: as above
Protocol: as §1

W317-hPro1.ECD.his = test: as above
Protocol: as §1

CD22.his = test: as above
Protocol: as §1

VEGF.his = test: as above
Protocol: as §1

4-1BB.his [5] = target: T4, 4-1BB.his (Homo sapiens (Human), UniProt Q07011 24-186); test: as above
T4 sequence (Q07011 24-186 limits assumed): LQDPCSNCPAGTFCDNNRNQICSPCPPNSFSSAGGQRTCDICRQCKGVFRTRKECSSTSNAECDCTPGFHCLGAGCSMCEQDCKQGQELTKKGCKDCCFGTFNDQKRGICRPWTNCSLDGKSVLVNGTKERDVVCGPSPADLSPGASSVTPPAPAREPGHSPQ
Protocol: as §1

HSA [6] = target: T5, HSA (UniProt P02768 25-609); test: as above
Protocol: as §1

Factor Eight = test: as above
Protocol: as §1

CD147 = test: as above
Protocol: as §1

FGFR.his = test: as above
Protocol: as §1

PD-1.his = test: as above
Sequence of PD-1.his (Q15116 25-170): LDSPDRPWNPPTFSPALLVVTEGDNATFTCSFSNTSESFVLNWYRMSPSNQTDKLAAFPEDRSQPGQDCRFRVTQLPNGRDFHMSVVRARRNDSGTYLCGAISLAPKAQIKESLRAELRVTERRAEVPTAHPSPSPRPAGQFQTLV
Protocol: as §1

OX40.his = test: as above
Sequence of OX40.his (P43489 29-214): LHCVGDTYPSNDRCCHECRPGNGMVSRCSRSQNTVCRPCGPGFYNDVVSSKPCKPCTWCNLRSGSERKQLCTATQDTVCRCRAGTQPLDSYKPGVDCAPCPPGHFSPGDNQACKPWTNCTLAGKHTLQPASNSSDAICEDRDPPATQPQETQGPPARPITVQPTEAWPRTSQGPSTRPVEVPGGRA
Protocol: as §1

HER3.his [7] = target: T3, HER3.his; test: ELISA, antigen coated at 2 µg/mL, anti-cMyc-HRP detection
Protocol: as §1

4-1BB.his [8] = target: T4, 4-1BB.his; test: as above
Protocol: as §1

HSA [9] = target: T5, HSA; test: as above
Protocol: as §1

[10] = target: T6, mouse EGFR (cell surface) (mouse, UniProt Q01279 25-1210); test: FACS affinity on transfected cells, quantitative beads
T6 construct: whole, on cells; also called W562-CHO-K1.mProl.F3 cells
Protocol: (§2) Human, cyno, mouse EGFR and human EGFRvIII transfected cells were transferred in to 96-well U-bottom plates (BD) at a density of 5×10⁴ cells/well, respectively. Testing antibodies were 1:3.16-fold serially diluted in 1% BSA-PBS and incubated with the cells at 4° C. for 1 hr. The secondary antibody, Alexa647 conjugated goat anti-human IgG Fc (Jackson Immunoresearch Lab), was added to resuspended cells and incubated at 4° C. in the dark for 1 hr. The cells were then washed once and resuspended in PBS with 1% BSA, and analyzed by flow cytometery (BD). Fluorescence intensity was converted to bound molecules/cell based on the quantitative beads (Quantum™ MESF Kits, Bangs Laboratories). KD was calculated using Graphpad Prism5.

[11] = target: T2, human EGFRvIII (cell surface); test: as above
Protocol: as §2

[12] = target: T7, Macaca fascicularis EGFR (cell surface) (Macaca fascicularis, UniProt A0A2K5WK39 25-1210); test: as above
T7 construct: whole, on cells; also called monkey EGFR; cyno EGFR
Protocol: as §2

[13] = target: T1, human EGFR (cell surface); test: as above
Protocol: as §2

[14] = target: T1, human EGFR (cell surface); test: cell-based or functional assay
[15] = target: T7, Macaca fascicularis EGFR (cell surface); test: FACS on cells expressing monkey EGFR
Protocol: (§3) The binding of antibodies to cell surface EGFR was assessed by FACS with EGFR transfected cells and A431 cell line, which over expresses human EGFR. 1×10⁵ cells/well were plated in a 96-well plate and centrifuged at 210 g for 5 minutes at 4° C. After removing the supernatant, the cell pellets were re-suspended with serial dilutions of testing purified antibodies in 1% BSA-PBS and incubated for 1 hour at 4° C., followed by incubation with FITC conjugated goat anti-human IgG (Jackson ImmunoResearch) at 4° C. for 1 hour. Two times of washing with 200 μl/well 1% BSA-PBS were applied between each step. Finally, the cells were resuspended in 100 μl 1% BSA-PBS for flow cytometry analysis (Intellicyt).

[16] = target: T8, human EGFR ECD protein (W562-hPro1.ECD.his) (human, UniProt P00533 25-645); test: SPR (ProteOn XPR36), antibody captured by anti-human IgG Fc, EGFR ECD.his as analyte
T8 construct: extracellular domain; Made in HEK293 cells
Protocol: Each antibody was captured on an anti-human IgG Fc antibody immobilized GLM sensor chip (Bio-Rad). W562-hPro1.ECD.his at different concentrations was injected over the sensor chip at a flow rate of 100 uL/min for an association phase of 240 s, followed by 1800 s dissociation. The chip was regenerated by 10 mM glycine (pH 1.5) after each binding cycle. The sensorgrams of blank surface and buffer channel were subtracted from the test sensorgrams. The experimental data was fitted by 1:1 binding model using Langmiur analysis. Molecular weight of 85 kDa was used to calculate the molar concentration of analyte.

[17] = target: T1, human EGFR (cell surface); test: FACS binding to A431 cells (printed 'A432' in paragraph 253) after 0, 1, 4, 7 and 14 days in human serum at 37 C; upper panel
Protocol: Freshly collected human blood was incubated in polystyrene tubes without anticoagulant for 30 minutes at room temperature. The Serum was collected after centrifugation the blood at 4000 rpm for 10 minutes. Repeat the centrifugation until the serum was clarifying. Gently mix antibodies with serum and ensure the serum content >95%. The mix aliquots were incubated at 37° C. for 0 day, 1 day, 4 days, 7 days and 14 days, respectively. At the indicated time point the samples were quickly-frozen in liquid nitrogen and stored at −80° C. until analysis. The cell bindings of the serial dilutions of the antibody samples to A432 cells were analyzed by FACS. Four-parameter non-linear regression analysis was used to obtain EC₅₀ values for cell binding using GraphPad Prism 5 software (GraphPad Software, La Jolla, Calif.).

[18] = target: T6, mouse EGFR (cell surface); test: FACS on cells expressing mouse EGFR
Protocol: as §3

[19] = target: T1, human EGFR (cell surface); test: FACS on cells carrying human EGFR
Protocol: as §3

[20] = target: T1, human EGFR (cell surface); test: FACS competition with EGF-biotin (50 ng/ml) on A431 cells
Protocol: EGFR-expressing A431 cells were routinely maintained in DMEM containing 10% FBS, 10 mM HEPES and L-glutamine. 10⁵ cells per well were added to each well of a 96-well plate and centrifuged at 210 g for 5 minutes at 4° C. before the supernatant was removed. Serial dilutions of test antibodies were added to the pelleted cells and incubated for 1 hour at 4° C. […] MFI of the cells was measured by flow cytometry and analyzed by FlowJo.

| IC50 (read off the curve) [1] | EC50 [2] | IC50 (read off the curve) [3] | OD A450 (CD3.his) | OD A450 (CD40) | OD A450 (CTLA4.his) | OD A450 (HER3.his [4]) | OD A450 (W317-hPro1.ECD.his) | OD A450 (CD22.his) | OD A450 (VEGF.his) | OD A450 (4-1BB.his [5]) | OD A450 (HSA [6]) | OD A450 (Factor Eight) | OD A450 (CD147) | OD A450 (FGFR.his) | OD A450 (PD-1.his) | OD A450 (OX40.his) | binding result (HER3.his [7]) | binding result (4-1BB.his [8]) | binding result (HSA [9]) | Binder | also measured |
| --- | --- | --- | --- | --- | --- | --- | --- | --- | --- | --- | --- | --- | --- | --- | --- | --- | --- | --- | --- | --- | --- |
| ~1 nM | 1.08 nM | ~1 nM | – | – | – | – | – | – | – | – | – | – | – | – | – | – | – | – | – | W5626-2C10.VHH (VHH, c-Myc and his-tagged VHH fragment made in E. coli BL21; not shown: 6-his and c-Myc tags fused at the C-terminus) VHH: AVQLVESGGGLVQAGGSLTLSCAASGRTFSSYAMGWFRQAPGKEREFVAADRWSGGNTRYADSVKGRFTISRDNAKNTVYLQMNSLKPEDTAVYYCAATYLSSDYEWGVPPKAYDYDYWGQGTQVTVSS | – |
| – | – | – | 0.04 OD A450 | 0.05 OD A450 | 0.04 OD A450 | 0.04 OD A450 | 0.05 OD A450 | 0.05 OD A450 | 0.05 OD A450 | 0.05 OD A450 | 0.05 OD A450 | 0.04 OD A450 | 0.04 OD A450 | 0.05 OD A450 | 0.04 OD A450 | 0.04 OD A450 | no binding (tested: 10 µg/ml) | no binding (tested: 10 µg/ml) | no binding (tested: 10 µg/ml) | W5626-2C10-z5 (VHH) (VHH, also called c-Myc and his-tagged VHH fragment of W5626-2C10-z5; not shown: c-Myc and his tags) VHH: AVQLVESGGGLVQPGGSLTLSCAASGRTFSSYAMGWFRQAPGKEREFVAADRWSGGNTRYADSVKGRFTISRDNAKNTLYLQMNSLRAEDTAVYYCAATYLSSDYEWGVPPKAYDYDYWGQGTLVTVSS | – |

Second part, the binder before the results:

| Binder | IC50 (read off the curve) [1] | EC50 [2] | IC50 (read off the curve) [3] | OD A450 (CD3.his) | OD A450 (CD40) | OD A450 (CTLA4.his) | OD A450 (HER3.his [4]) | OD A450 (W317-hPro1.ECD.his) | OD A450 (CD22.his) | OD A450 (VEGF.his) | OD A450 (4-1BB.his [5]) | OD A450 (HSA [6]) | OD A450 (Factor Eight) | OD A450 (CD147) | OD A450 (FGFR.his) | OD A450 (PD-1.his) | OD A450 (OX40.his) | binding result (HER3.his [7]) | binding result (4-1BB.his [8]) | binding result (HSA [9]) | also measured |
| --- | --- | --- | --- | --- | --- | --- | --- | --- | --- | --- | --- | --- | --- | --- | --- | --- | --- | --- | --- | --- | --- |
| W5626-2C2.VHH (VHH, c-Myc and his-tagged VHH fragment made in E. coli BL21; not shown: 6-his and c-Myc tags fused at the C-terminus) VHH: EVQLVESGGGLVQAGDSLRLSCAASGRTHSNYVMGWFRQAPGQEREFVAGISRTYGNTYYRDSVEGRFTISVDNPKNTVYLQMNSLKPEDTAVYYCAADPTRSEVILTTSHRYVYWGQGTLVTVSS | ~1 nM | 2.41 nM | ~2 nM | – | – | – | – | – | – | – | – | – | – | – | – | – | – | – | – | – | – |
| W5626-2C2-z22 (VHH) (VHH, also called c-Myc and his-tagged VHH fragment of W5626-2C2-z22; not shown: c-Myc and his tags) VHH: EVQLVESGGGLVQPGGSLRLSCAASGRTHSNYVMGWFRQAPGQEREFVAGISRTYGNTYYRDSVEGRFTISRDNSKNTLYLQMNSLRAEDTAVYYCAADPTRSEVILTTSHRYVYWGQGTLVTVSS | – | – | – | 0.06 OD A450 | 0.06 OD A450 | 0.07 OD A450 | 0.06 OD A450 | 0.07 OD A450 | 0.06 OD A450 | 0.07 OD A450 | 0.06 OD A450 | 0.07 OD A450 | 0.05 OD A450 | 0.06 OD A450 | 0.05 OD A450 | 0.06 OD A450 | 0.05 OD A450 | no binding (tested: 10 µg/ml) | no binding (tested: 10 µg/ml) | no binding (tested: 10 µg/ml) | – |
| W5626-2C2-z22 (humanized VHH of W5626-2C2 further comprising a human Fc of IgG1 isotype) (Fc fusion, Bivalent humanized VHH linked with human IgG1 Fc region; not shown: human IgG1 Fc region from a modified pcDNA3.3 vector) EVQLVESGGGLVQPGGSLRLSCAASGRTHSNYVMGWFRQAPGQEREFVAGISRTYGNTYYRDSVEGRFTISRDNSKNTLYLQMNSLRAEDTAVYYCAADPTRSEVILTTSHRYVYWGQGTLVTVSS | – | – | – | – | – | – | – | – | – | – | – | – | – | – | – | – | – | – | – | – | Bmax [10]: 1 nM; Kd [10]: 0.51 nM; Bmax [11]: 530 pM; Kd [11]: 0.24 nM; Bmax [12]: 230 pM; Kd [12]: 0.26 nM; Bmax [13]: 860 pM; Kd [13]: 1.1 nM; EC50 of EGFR internalization (Fab-ZAP, viability of A431 cells) [14]: 0.17 nM; IC50 of inhibition of EGFR phosphorylation (pEGFR sandwich ELISA, A431 cells stimulated with EGF) [14]: 22.6 nM and 10.4 nM; EC50 [15]: 0.25 nM; Kd [16]: 3.22 nM; koff [16]: 0.00209 s⁻¹; kon [16]: 649000 M⁻¹ s⁻¹; EC50 (read off the curve) [17]: ~0.9 nM; EC50 [18]: 0.65 nM; EC50 [19]: 0.83 nM; IC50 [20]: 1.35 nM |
